PMC2713185
pKd: −log10 of the molar value.

Molecular target: TMR-PDZ(C338) domain of Dvl1 (mouse) (UniProt P51141)
Experiment: other fluorescence titration

Sequence of UniProt P51141 (P51141 251-341): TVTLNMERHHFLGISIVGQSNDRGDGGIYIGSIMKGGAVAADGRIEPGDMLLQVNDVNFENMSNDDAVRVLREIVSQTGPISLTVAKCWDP

tripeptide VVV gave a pKd of 4.15.
Substance tripeptide VWV has a pKd of 5.70.
